# Laboratory results as given in US20040229298A1.
# Ends that are not written are not given here.
# B1: HPV16 E6 C-terminal PDZ ligand peptide (20 mer, biotinylated), P03126 139-158 (peptide)
# peptide: WTGRCMSCCRSSRTRRETQL
# modifications: not fully specified; cysteine pairing not given here
# What was measured:
# Test in all cases: G assay ELISA, E6 PL peptide titrated on constant GST-PDZ
# [1] = molecular target: GST-SAST1 PDZ domain (human), Q9Y2H9
# [2] = molecular target: GST-MAGI1 PDZ domain 2 (human)
# [3] = molecular target: GST-PSD95 PDZ domains 1-3 (human), P78352
# [4] = molecular target: GST-SIP1 PDZ domain 1 (human)
# [5] = molecular target: GST-PSD95 PDZ domain 2 (human)
# [6] = molecular target: GST-TIP1 PDZ domain (human)
# [7] = molecular target: GST-DLG3 PDZ domains 1-2 (human), Q92796
# [8] = molecular target: GST-DLG2 PDZ domain 3 (human)
# GST-SAST1 PDZ domain (human), Q9Y2H9, sequence (Q9Y2H9 other isoform, or with tags, fused parts or gaps limits assumed): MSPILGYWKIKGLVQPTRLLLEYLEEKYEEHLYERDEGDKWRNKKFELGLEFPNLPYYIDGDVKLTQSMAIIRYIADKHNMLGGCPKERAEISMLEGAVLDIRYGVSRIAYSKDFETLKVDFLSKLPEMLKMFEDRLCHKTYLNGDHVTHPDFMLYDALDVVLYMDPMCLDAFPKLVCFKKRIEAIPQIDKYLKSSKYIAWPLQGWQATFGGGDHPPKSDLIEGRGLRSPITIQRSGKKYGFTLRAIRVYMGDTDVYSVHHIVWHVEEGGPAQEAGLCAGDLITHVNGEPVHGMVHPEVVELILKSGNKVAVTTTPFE
# GST-DLG3 PDZ domains 1-2 (human), Q92796, sequence (Q92796 other isoform, or with tags, fused parts or gaps limits assumed): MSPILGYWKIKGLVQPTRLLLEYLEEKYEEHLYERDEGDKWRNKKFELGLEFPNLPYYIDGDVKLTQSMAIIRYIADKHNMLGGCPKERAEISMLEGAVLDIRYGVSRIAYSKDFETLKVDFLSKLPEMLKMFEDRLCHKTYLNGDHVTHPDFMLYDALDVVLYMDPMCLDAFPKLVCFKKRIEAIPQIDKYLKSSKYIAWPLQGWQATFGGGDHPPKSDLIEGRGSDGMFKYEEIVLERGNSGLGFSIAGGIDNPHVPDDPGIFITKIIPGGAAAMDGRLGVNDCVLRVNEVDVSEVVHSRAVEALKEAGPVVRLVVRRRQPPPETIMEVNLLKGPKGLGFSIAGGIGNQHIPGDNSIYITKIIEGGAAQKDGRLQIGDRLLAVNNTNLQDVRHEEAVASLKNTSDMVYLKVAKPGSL
binder,measurement,setting,value
B1,EC50,[1],580 nM
same,EC50,[2],56 nM
same,EC50,[3],1000 nM
same,EC50,[4],7500 nM
same,EC50,[5],6800 nM
same,EC50,[6],750 nM
same,EC50,[7],3800 nM
same,EC50,[8],1600 nM
